Experimental data from the DeepSol protein solubility set.

Assay: soluble on expression in E. coli; label from the status in PepcDB or PDB records

Row | Sequence | soluble on expression in E. coli
1 | MNIQKAHDVAPPEWLAQVREPALCPGQIIVDPHHHLWDRQGQLYLLPQFLEDQAGDHRIVSTVYVQGRAMYRAGAHALAPVGETEFARGVAAMCASGRYGETRVCDGIVAHADLTQGDGVERVLQAHVEAGGRHFKGIRHMATWDADPALMNPDVAPPPHLLGETRFRRGFAVLDRMGLVFDAWVFHPQLADVVALASAFPDTTIVLNHLGGILNTGSYAGRREAIRADWLASLRELATCPNVYLKLGGLGMRISGFDYPSRPRPPNSTELAADFAPYMLPAIDLFGPERCMFESNFPVDKRSYTYGVLWNAFKRLAADMSQAERDHLFYQTAAKAYRLNLDHIAADMAGDPLEHHHHHH | not soluble
2 | MNIRERKRKHLEACLEGEVAYQKTTTGLEGFRLRYQALAGLALSEVDLTTPFLGKTLKAPFLIGAMTGGEENGERINLALAEAAEALGVGMMLGSGRILLERPEALRSFRVRKVAPKALLIANLGLAQLRRYGRDDLLRLVEMLEADALAFHVNPLQEAVQRGDTDFRGLVERLAELLPLPFPVMVKEVGHGLSREAALALRDLPLAAVDVAGAGGTSWARVEEWVRFGEVRHPELCEIGIPTARAILEVREVLPHLPLVASGGVYTGTDGAKALALGADLLAVARPLLRPALEGAERVAAWIGDYLEELRTALFAIGARNPKEARGRVERV | soluble
3 | MNITDLKPTKVWKFFHEITQVPRPSKKEEKILAYLVKFAEDRNLKYRTDEVGNLVIEKPATPGYEHLETVILQSHMDMVCEKNADKVHDFENDPIRTIIDGEWLHADGTTLGADNGIGCAAELAILDSDDIEHGPIECLFTMDEETGMTGAMNLKPGFFNGKILLNLDSEDEGELFIGCAGGMGTMVEFAYEKREATDDYLYFEVKVSGLKGGHSGGEIHIGLGNANKILTRYLYALEHELDWKLCSFQGGNLHNAIPREAHAVIGLKADQKERARVILNELAAAVEDELKRVDPGVKLEMKSVGKPAYRIDCDTKRRLVRALYACPHGVYGMSHDIEGLVETSSNLASVKMKEDDKIYVETSQRSSTSSLISDIANTVASVFELADAKISFRDPYPGWKPNPDSPILKAASESYERIFGRKPAIKAIHAGLECGLFLDKYPYLDMVSFGPTLRDVHSPVEKIEIKTVQLWWDHLVDILKHIPAAK | not soluble
4 | MNIVAKPTSFISGAVDGVVDLKNTYTENQHLKERLEELAQLESEVADLKKENKDLKESLDITDSIRDYDPLNASVISRNPTNWNDQVEIDKGSSDGVKPDMAVTTPSGLIGKVTTTGAKSATVELLTSSDVKNRVSAKVQGKENAFGIINGYDSDTKLLELKQLPYDMKFKKGQKVVTSGLGGKFPAGIFIGTIEKVETDKMGLSQTAFIKPGADMYDLNHVTVLKRSAEAGTTDDDTTSSDTTGGQGSHHHHHH | soluble
5 | MNKEALVNRLNASAKRQKADIVIKNGKIMDVYNQEWIYEDIAITDGVIVGLGEYEGENIIDAEGQMIVPGFIDGHVHIESSMVTPIEFAKAVLPHGVTTVVTDPHEIANVSGEKGIEFMLEQARHTPLNIHFMLPSSVPAASFERSGAILKAADLKPFYEEEEVLGLAEVMDYVSVQQAEKDMVQKLLDARVAGKRIDGHLAGLSTDLINIYRTAFVLNDHEVTSKEEALDRIRRGMYVMMREGSVAKNTLNVLPAVNEKNRTPVFFCTDDKHVDDLLSEGSVNHQVKMAIQAGLNPFLAYQLGSLNAAECYGLDTKGAIAPGFDADLLFVSDLENVTVTMTMVKGQTVAEDSKAVYQDHASTAAPDQALLDSVKLAAPLNKQDFHMPIDSEQQINVIQIIPNQLETRLVQVPAPVAREFEPDTELDLLKIAVVERHKGLKETGLGVVKGFGFKSGAIATTISHDSHNIIAVGTNDEDIAAAVNKLQEIGGGLTIIKNGEELHSVPLPIAGLLSDQSAEQVNQSLLTLHDKLSLIGFTGGFNPFLTLSFLALPVIPDIKMTTTGLFDVKSFQHISLQ | not soluble
6 | MNKFGAEKIFIEKQSGATITHRPIFQEALDFVRAQDIFIVEAIDRLGRNYDEIIDSVNYLKKKNVRLIITSLPIMAEAIGNPLLDKFIKDLIIQILAMIAEQERTESKRRQAQGIKIAKANGVYKGRPKLYSADTKDPQRRLVYKSIVQDLKNGVAISKIAKDYNITRQTIYRIKKEIHELEIN | not soluble
7 | MNKKEIQAYQSAFEKFNPFYGVDFPITSVKLCELINKMRNDHNEKVVELRHDHLMNKIREFSEQVNAPNFRVVESSYKDTKGEDRKCYLLGKTECRAIAATESKSVCYMIMVYLDQLEQIFEKAKEAKATEFDRKLSKQGVTWREACRTVGIEHPDLALK | not soluble
8 | MNKKELIDILLYDVALEHSAIIQYLYNVFLIGDPEITNEIESIARQEMRHLKWFAQKVVELGGKVTLNRIEEAIKVGQSWEEMLKNDVDAEEEAIKIYSQQLEIVKDDSVKKLLDRVINDEMRHRDEFSEMLEELKNKKIEEAKQEAGIDSEIFNILNKLLQKEYRLILDYLYHFFHSKTWQEKDTSLDIAIESMFHMGELGEKIGELGGYPDLSLPKAKHFKGFTPEEVIEDIKEEETASRMYEENAKKVTREDLVKLFKWFEKQEDYHAQRLKELFRKMNRFTIGGLGEES | not soluble
9 | MNKKIGITLGDPAGIGPELILKISKHFKEKFTYVIYGEEKTLLEASKLTGIKLNYKKIEKVEEAKERGVYLIDLNVLKVPVVEPSVSSGKAAVAYLARAVADAIRGNIHGILTMPINKFWAKKAGFQYEGQTEFLAKASGTKDYAMMMYSEKLKVVLLTTHIPLKDVPNYVKKEEILKKVRLIRKEFLEKFKFEPLIKVLGLNPHAGEMGELGREEIEEIIPAVEEAKKEGIKVVGPLVPDVAFINPSEEDVFLCMYHDQGLIPFKMLAFDEGVNFTLGLPFIRTSPDHGTAYDIAWKNKARESSSLHALRLIEDLLDKI | soluble
10 | MNKKMIFFDIDGTIVDEKTHVIPEGTIAAIKKARSNGHLVFINTGRTFFNVPDSIRQIGFDGYVCGCGTYIHINGQTLLEKSISHKRCVEIVEKLRECKLDALLEGQKDFFFDQREPVSEKTLELKSKFGKRGYDVSKSWDDSDIVFDKFVIWTRKESNLEAFKSHISNDFDYIDREDEEGEFGEIVLKGYSKATGIKFLQDYFNIPIEDCYALGDSLNDLPMLQYVPNSIAMGNSSKGLFDLVAFVTKDIMEDGIEYALKHYNII | not soluble
11 | MNKLKYLQGYPEHILAQVAPMVENGKLAEWVKKKYPTMHDITSEKALFDYTQALKNKYIKKSSPLSKVVYDPKIHVVNNALGLHTFVSRIHGNKLKAKNEIRISSVFRKAPEPLLRMLVVHELAHIKEKEHNKAFYALCCHMEPEYHQLEFDARLYLTYLETLLEHHHHHH | soluble
12 | MNKRDYMNTSVQEPPLDYSFRSIHVIQDLVNEEPRTGLRPLKRSKSGKSLTQSLWLNNNVLNDLRDFNQVASQLLEHPENLAWIDLSFNDLTSIDPVLTTFFNLSVLYLHGNSIQRLGEVNKLAVLPRLRSLTLHGNPMEEEKGYRQYVLCTLSRITTFDFSGVTKADRTTAEVWKRMNIKPKKAWTKQNTL | soluble
13 | MNLFASEIFVFTPKGEIKTMPQNCTALDFAFSIHTFLGSHCIGAKVNHKLVPLSHKLQSGDQVEILTSKSQHVQPLEHHHHHH | not soluble
14 | MNLHEYQAKQLFARYGLPAPVGYACTTPREAEEAASKIGAGPWVVKCQVHAGGRGKAGGVKVVNSKEDIRAFAENWLGKRLVTYQTDANGQPVNQILVEAATDIAKELYLGAVVDRSSRRVVFMASTEGGVEIEKVAEETPHLIHKVALDPLTGPMPYQGRELAFKLGLEGKLVQQFTKIFMGLATIFLERDLALIAINPLVITKQGDLICLDGKLGADGNALFRQPDLREMRDQSQEDPREAQAAQWELNYVALDGNIGCMVNGAGLAMGTMDIVKLHGGEPANFLDVGGGATKERVTEAFKIILSDDKVKAVLVNIFGGIVRCDLIADGIIGAVAEVGVNVPVVVRLEGNNAELGAKKLADSGLNIIAAKGLTDAAQQVVAAVEGK | soluble
15 | MNLMLCCTPLQVLIARKIIELHPNEQFFGVMFGGVWDKKRTLYASKLAEVCSDSMNIDTGKDLKGFDFLKLMRQLKNKITHKGFDKVFLANLNSLWLQTYLSHVSFKELYTFDDGSDNIFPHPNLLREPGTFKYKLIKAFIGDKYSVNKLFKKIKKHYTVYPNYKNIVSNIEPISLWDNQIDCEIDGEVSFFIGQPLLNTKEENISLIKKLKDQIPFDYYFPHPAEDYRVDGVNYVESELIFEDYVFKHLSNKKLFIRSSVLLHLIYVILMKSVLLERVFQDGNSVTIHFQTLDRFIRKFLEHHHHHH | not soluble
